Assay results: the nanobody polyreactivity screen of Harvey et al. (2022)

Experiment: yeast display, Sf9 membrane polyspecificity reagent, FACS + sequencing; frameworks hold sequencing errors
In short: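 Using colony PCR, genes from sorted yeast display clones were amplified, then sequenced on MiSeq at 2 × 250 and filtered by CDR length. The clones had been stained with 10% biotinylated, detergent-solubilized Sf9 membrane reagent for 1 hour at 4 °C and sorted by FACS into low and high (top ~1%) gates on anti-HA and streptavidin fluorescence. Polyreactivity labels come from the gate of origin.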

Sequence: QVQLVESGGGLVQAGGSLRLSCAASGFNFASYAMGWYRQAPGKERELVAAISWRGGSTYYADSVKGRFTISRDNAKNTVYLQMNSLKPEDTAVYYCNAYVYVGTGRGYDTLDYWGQGTQVTLSS
- polyreactivity (PSR sort gate): low polyreactivity

Sequence: QVQLVESGGGLVQAGGSLRLSCAASGFNFDGNALGWYRPAPGKERELVAAIRSGGRTNYADSVKGRFTISRDNAKNTVYLQMNSLKPEDTAVYYCAARSIYPYYYRRDNRYYYWGQGTQVTVSS
- polyreactivity (PSR sort gate): high polyreactivity

Sequence: QVQLVESGGGLVQAGGSLRLSCAASGFNFGCYCMGWYIQAPGKERELVAAITWSGVRTYYADSVKGRFTISRDNAKNTVYLQMNSLKPEDTAVYYCAASGEGGYLENNEFDYWGQGTQVTVSS
- polyreactivity (PSR sort gate): low polyreactivity

Sequence: QVQLVESGGGLVQAGGSLRLSCAASGFNFGGYAMGWYRQAPGKERELVARITRSGGSTYYADSVKGRFTISRDNAKNTVYLQMNSLKPEDTAVYYCNADTPPNPYYYWGQGTQVTVSS
- polyreactivity (PSR sort gate): low polyreactivity

Sequence: QVQLVESGGGLVQAGGSLRLSCAASGFNFGINAMGWYRQAPGKEREWVAAINQSGDRTYYADSVKGRFTISRDNAKNTVYLQMNSLNPEDTEVYYCASLSTYRTWYGDWGQGTQVTVSS
- polyreactivity (PSR sort gate): high polyreactivity

Sequence: QVQLVESGGGLVQAGGSLRLSCAASGFNFGWYAMGWYRQAPGKERELVAAISGRGGSTNYADSVKGRFTISRDNAKNTVYLQMNSLKPEDTAVYYCNAALSPWGNNYWGQGTQVSVSS
- polyreactivity (PSR sort gate): high polyreactivity

Sequence: QVQLVESGGGLVQAGGSLRLSCAASGFNFSYNAMGWYRQAPGKERELTYADSVKGRFTISRDNAKNTVYLQMNSLKLEDTAVYYCAAGEYGRQYDGDYWGQGTQVTVSS
- polyreactivity (PSR sort gate): low polyreactivity

Sequence: QVQLVESGGGLVQAGGSLRLSCAASGFRLNAMGWYRQAPGKERELVAAITASGGSTYYADSVKGRFTISRDNAKNTVYLQMNSQKPEDTAVYYCARYHPVRGYNYWGQGTQVTVSS
- polyreactivity (PSR sort gate): high polyreactivity

Sequence: QVQLVESGGGLVQAGGSLRLSCAASGFSFDSNAMGWYRQAPGKERELVAVITSSGGRTYYADSVKGRFTISRDNAKNTVYLQMNSLKPEDTAVYYCAAAKKFFWYEYDYWGQGTQVSVSS
- polyreactivity (PSR sort gate): high polyreactivity

Sequence: QVQLVESGGGLVQAGGSLRLSCAASGFSFRYYAMGWYRQAPGKERELVAAISSGGNTRYADSVKGRFTISRDNAKNTVYLQMNSLKPEDTAVYYCARRPGAWKYVYTGDYWGQGTQVTVSS
- polyreactivity (PSR sort gate): high polyreactivity

Sequence: QVQLVESGGGLVQAGGSLRLSCAASGFSFSRNTMGWYRQAPGKDRELVATIDRGGRTNYADSVKGRFTISRDNAKNTVYLQMNSLKPEDTAVFYCNAYWRRFPQYDYWGLGTQVTVSS
- polyreactivity (PSR sort gate): high polyreactivity

Sequence: QVQLVESGGGLVQAGGSLRLSCAASGFTAYGYAMGWYRQAPGQERELVAAISRSGGSTYYADSVKGRFTISRDNAKNTVYLQMYSLKPDDTAVYYCAVAVGREYVYRYYYWGQGTQVTVSS
- polyreactivity (PSR sort gate): high polyreactivity

Sequence: QVQLVESGGGLVQAGGSLRLSCAASGFTCLFYDMGWYRQAPGKERELVASITWSGTSTYADSVKGRFTISRDNAINTVYLQMNSLKPEDTAVYYCNAEPHGVKVSYDYWGQGTQVTVSS
- polyreactivity (PSR sort gate): low polyreactivity

Sequence: QVQLVESGGGLVQAGGSLRLSCAASGFTFAAYDKGWSRQAPGKELELVAAITKSGASTYYADSVKGRFTISRDIAKNTFYLQMNSLKPEDTAVYYCAAKNTLYSYYYWGQGTQVTVSS
- polyreactivity (PSR sort gate): high polyreactivity

Sequence: QVQLVESGGGLVQAGGSLRLSCAASGFTFADNAMGWYRQATGKERELVAAISWNGGRTFYADSVKGRFTISRDNAKNTVYLQMNSLKPEDSAVYYCNAVFIVRKYTGWSTGEGYWGQGTQVTVSS
- polyreactivity (PSR sort gate): high polyreactivity

Sequence: QVQLVESGGGLVQAGGSLRLSCAASGFTFAGNAMGWYRKAPGKERELVAGISRRGGNTYYADSVKGRFTISRDIAKNTVYLQMNSLKPEDTAVYYCARYSSSYWGQGTQVTVSS
- polyreactivity (PSR sort gate): high polyreactivity

Sequence: QVQLVESGGGLVQAGGSLRLSCAASGFTFAGYAMGWYRQAPGKERELVAVITSSDSTYYADSVKGLFTISRDNAKNTDYLQMNSLKPEDTAVYYSAVRSYVNWWSIVKYDYWGQGTQVTVSS
- polyreactivity (PSR sort gate): low polyreactivity

Sequence: QVQLVESGGGLVQAGGSLRLSCAASGFTFAHYAMGWYRPAPGKERELVAAISGSGSSTYYADSVKGRFTISRDYAKNSVYLKMNSLKPEDTAVYYCNVRWYFLYYYWGQGTQVTVSS
- polyreactivity (PSR sort gate): low polyreactivity

Sequence: QVQLVESGGGLVQAGGSLRLSCAASGFTFAKNAMGWYRQAPGKERELVADITYSGGSTYADSVKGRFTISRDNAKNTVYLQMNSLKPEETAVYYCAADARRRSGYDYWGQGTQVSVSS
- polyreactivity (PSR sort gate): low polyreactivity

Sequence: QVQLVESGGGLVQAGGSLRLSCAASGFTFAKYAMGWYRQAPGKERELVAAIRSRGDTTYYADSVKGRFTISRDNAKNTVYFQLNSLKPEDTAVYYCSARSYFLVDGSRYDYCGQGTQVTVSS
- polyreactivity (PSR sort gate): high polyreactivity

Sequence: QVQLVESGGGLVQAGGSLRLSCAASGFTFAPYAMGWYRQAPGKERELVATIRSSGGRTYYADSVKGRFTISRDNAKNTVYLQMNSLKPEDTAVYYCAATGVYTKNPRGMDYWGQGTKVTVSS
- polyreactivity (PSR sort gate): high polyreactivity

Sequence: QVQLVESGGGLVQAGGSLRLSCAASGFTFARNGMGWYRQAPGKEREFVAAITRSGGRTYYADSVKGRFTISRDNAKNTVYLQMNSLKPEDTAVYYCAAGYRGIGMNYWGQGTQVTVSS
- polyreactivity (PSR sort gate): high polyreactivity

Sequence: QVQLVESGGGLVQAGGSLRLSCAASGFTFARNVMGWYRQAPGKERELVAAITTSGGSTYYADSVKGRFTISRDNAKNTVYLQMKSLKPEDTAVYYCARRVYGYYIPYNYWGQGTQVTVSS
- polyreactivity (PSR sort gate): high polyreactivity

Sequence: QVQLVESGGGLVQAGGSLRLSCAASGFTFARYAMGWYRQAPGKERELVAAIIWSGGRTYYADSVKGRFTISRDTAKNTVYLQMNSLKPEDTAVYYCNAWGLFYYSSGYDYWGQGTQVTVSS
- polyreactivity (PSR sort gate): high polyreactivity

Sequence: QVQLVESGGGLVQAGGSLRLSCAASGFTFAVYAMGWYRQAPGKERELVAAITTSGTRTYYADSVKGRFTISRDNAKNTVYLQMNSLKPEDTAVYYCAAVGFRQWPEFDYWGQGTQVTVSS
- polyreactivity (PSR sort gate): low polyreactivity

Sequence: QVQLVESGGGLVQAGGSLRLSCAASGFTFAVYDMGWYRQAPGKERELVASITGDSTNYADSVKGRFTISRDNAKNTVYLQMNSLKPEDTAVYYCAAEYVPYYEYESWGQGTQVTVSS
- polyreactivity (PSR sort gate): low polyreactivity

Sequence: QVQLVESGGGLVQAGGSLRLSCAASGFTFAWYTMGWYRQAPGKERELVAAITDSGDSTYYADSVKGRFTISRDNAKNTVYLQMNSLKPEDTAVYYCATRTWYWDIWITEYDYWGQGPQVTVSS
- polyreactivity (PSR sort gate): low polyreactivity

Sequence: QVQLVESGGGLVQAGGSLRLSCAASGFTFAWYTMGWYRQEPGKESELVAAISWSGGSTYYADSVKGRFTISPDNANKTVYLQMNILKPEDTAVYYCAVTTGLTRYEYWGQGTQVTVSS
- polyreactivity (PSR sort gate): high polyreactivity

Sequence: QVQLVESGGGLVQAGGSLRLSCAASGFTFAYNAMGWYRPAPGKERELVAAISGRGVSTYYADSVKGRFTISRDNAKNTVYLQMNSLKPEDTAVYYCAKRYRYWTTERYDYWGQGTQVTVSS
- polyreactivity (PSR sort gate): high polyreactivity

Sequence: QVQLVESGGGLVQAGGSLRLSCAASGFTFAYNAMGWYRQAPGKERELVAAISSGGTRTYYADSVKGRFTISRDNAKYTVYLQLNSLNPEDTAVYYCASERVGWSGYRGDYLGQGTQVTVSS
- polyreactivity (PSR sort gate): high polyreactivity

Sequence: QVQLVESGGGLVQAGGSLRLSCAASGFTFAYNAMGWYRQAPGKERELVAAISWSGGTTYYADSVKGRFTISRDNAKNTVYLQMNSLKPEDTAVYYCAKRGIGYATSWRGSDYWGQGTQVTVSS
- polyreactivity (PSR sort gate): high polyreactivity

Sequence: QVQLVESGGGLVQAGGSLRLSCAASGFTFAYYAMGWDRQAPGKERELVAAINWSGTRTSYADSVKGRFTISRDNAKNTVYLQMNSLKPEDTAVYYCAADSSLRYDYWGQGTQVTVSS
- polyreactivity (PSR sort gate): high polyreactivity

Sequence: QVQLVESGGGLVQAGGSLRLSCAASGFTFAYYAMGWYRQAPGKEWELVAAISRGGTSTYYADSVKGRFTISRDKAKNTVYLQMNTLKPEDTAVNYCNAGKVGYSLYDYCGQGTQVTVSS
- polyreactivity (PSR sort gate): high polyreactivity

Sequence: QVQLVESGGGLVQAGGSLRLSCAASGFTFCRYAMGWYRQAPGKEREFVAGISSSGGSTYYADSVKGRFTISRDNAKNTVYLQMNSLKPEVTAVYYCNKARYFTGQRYDYWGQGTQVTVSS
- polyreactivity (PSR sort gate): high polyreactivity

Sequence: QVQLVESGGGLVQAGGSLRLSCAASGFTFDANAMGWYRQAPGKERELVAAITRVGSTFYADSVKGRFTISRDNAKNTVYLQMNSLKPEDTAVYYCNAARDHVSGYDYWGQGTQVTVSS
- polyreactivity (PSR sort gate): low polyreactivity

Sequence: QVQLVESGGGLVQAGGSLRLSCAASGFTFDAYTMGWYRQAPGKERELVAAINWSGDTTYYADSVKGRFTISRDNAKNTVYLQMNSLKPEDTAVYYCAAVWWIYGVWFDYWGQGTQVTVSS
- polyreactivity (PSR sort gate): high polyreactivity

Sequence: QVQLVESGGGLVQAGGSLRLSCAASGFTFDENAMGWYRQAPGINYSGASTYYADSVKGRFTISRDNAKNTVYLQMNSVKPEDTAVYYCAAEVVAQMNYCGQGTQVTVSS
- polyreactivity (PSR sort gate): low polyreactivity

Sequence: QVQLVESGGGLVQAGGSLRLSCAASGFTFDENAMGWYRQAPGINYSGASTYYADSVKGRFTISRDNAQNSVYLQMNSLKPEDTAVYYCAAEVVAQMNYWGQGTQVTVSS
- polyreactivity (PSR sort gate): low polyreactivity

Sequence: QVQLVESGGGLVQAGGSLRLSCAASGFTFDENAMGWYRQAPGINYSGASTYYAVSVKGRFTIARDNAKNTVYLQMNSLKPEDTAVYYCAAEVLAQMNYWGQGTQVTVSS
- polyreactivity (PSR sort gate): low polyreactivity

Sequence: QVQLVESGGGLVQAGGSLRLSCAASGFTFDFYAMGWYRQAPGKDRELVAAISRSGGRTYYADSVKGRFTISRDNAKNTVYLQMNSLKPEDTAVYYCAAVDIIPVRMEYWGQGTQVTVSS
- polyreactivity (PSR sort gate): high polyreactivity

Sequence: QVQLVESGGGLVQAGGSLRLSCAASGFTFDFYAMGWYRQAPGKERELVAAISKNDGTTYYADSVKGRFTISRDNAKNTVYLQMNSLKPEDTAVYYCAADVELWVFRGQQYDYWGQGTQVTVSS
- polyreactivity (PSR sort gate): low polyreactivity

Sequence: QVQLVESGGGLVQAGGSLRLSCAASGFTFDGYGMGWYRQAPGKERELVAVITSGGSTKYADSVKGRFTISRDNAKNTVYLQMNSLKPEDTAVYYCAADNRIRGVAFDYWGQGTKVTVSS
- polyreactivity (PSR sort gate): low polyreactivity

Sequence: QVQLVESGGGLVQAGGSLRLSCAASGFTFDKNAMGWYRPAPGKERELVAAINIGSTYYADSVKGRFTISRDNAKNTVYLQMNRLKPEDTAVYYCAKEVPSGYWVNYYYWGQGTQVTVSS
- polyreactivity (PSR sort gate): low polyreactivity
